Assay results as given in article PMC11565809 (bioRxiv, 2024).

Molecular target: human factor H (human, UniProt P08603 19-1231)
Experiment: ELISA

human factor H, sequence (P08603 19-1231): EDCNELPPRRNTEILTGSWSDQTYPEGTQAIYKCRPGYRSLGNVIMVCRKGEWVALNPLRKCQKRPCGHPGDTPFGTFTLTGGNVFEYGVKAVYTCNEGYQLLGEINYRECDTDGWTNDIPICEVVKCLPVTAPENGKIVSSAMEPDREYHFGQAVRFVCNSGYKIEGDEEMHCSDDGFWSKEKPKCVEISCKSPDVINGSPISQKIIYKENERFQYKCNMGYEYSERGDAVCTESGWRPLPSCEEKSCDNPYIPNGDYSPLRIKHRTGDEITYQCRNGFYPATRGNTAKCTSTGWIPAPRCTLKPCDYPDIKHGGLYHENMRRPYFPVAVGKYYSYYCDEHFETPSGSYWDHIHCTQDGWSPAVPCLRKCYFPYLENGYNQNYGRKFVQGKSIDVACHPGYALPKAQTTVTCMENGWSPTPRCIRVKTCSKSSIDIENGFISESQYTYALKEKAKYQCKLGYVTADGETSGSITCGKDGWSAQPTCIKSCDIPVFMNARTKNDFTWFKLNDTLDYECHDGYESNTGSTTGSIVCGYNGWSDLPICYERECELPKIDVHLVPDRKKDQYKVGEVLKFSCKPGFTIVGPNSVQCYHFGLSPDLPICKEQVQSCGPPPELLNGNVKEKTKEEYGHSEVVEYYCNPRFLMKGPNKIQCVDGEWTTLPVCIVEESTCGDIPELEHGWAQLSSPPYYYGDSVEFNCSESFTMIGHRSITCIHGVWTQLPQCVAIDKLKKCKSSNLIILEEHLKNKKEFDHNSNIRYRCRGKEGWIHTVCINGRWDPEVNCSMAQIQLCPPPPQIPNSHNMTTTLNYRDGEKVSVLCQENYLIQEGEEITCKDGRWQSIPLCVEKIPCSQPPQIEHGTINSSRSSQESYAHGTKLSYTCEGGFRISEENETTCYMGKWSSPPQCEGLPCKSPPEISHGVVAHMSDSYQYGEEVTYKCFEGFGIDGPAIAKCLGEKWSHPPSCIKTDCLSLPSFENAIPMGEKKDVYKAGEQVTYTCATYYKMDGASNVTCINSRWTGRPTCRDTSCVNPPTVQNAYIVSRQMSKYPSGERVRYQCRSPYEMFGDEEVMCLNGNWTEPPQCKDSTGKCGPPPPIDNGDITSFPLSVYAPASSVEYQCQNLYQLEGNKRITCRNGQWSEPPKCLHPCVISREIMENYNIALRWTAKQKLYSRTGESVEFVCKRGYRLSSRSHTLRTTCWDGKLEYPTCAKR

B1: histidine-tagged CspZ (natural protein, B. burgdorferi)
chain: RLNQRNINELKIFVEKAKYYSIKLDAIYNECTGAYNDIMTYSEGTFSDQSKVNQAISIFKKDNKIVNKFKELEKIIEEYKPMFLSKLIDDFAIELDQAVDNDVSNARHVADSYKKLRKSVVLAYIESFDVISSKFVDSKFVEASKKFVNKAKEFVEENDLIALECIVKTIGDMVNDREINSRSRYNNFYKKEADFLGAAVELEGAYKAIKQTLL
B1: binds.
